Assay results published in PMC12412103, “An Amyloidogenic Fragment of the Spike Protein from SARS-CoV‑2 Virus Stimulates the Aggregation and Toxicity of Parkinson’s Disease Protein Alpha-Synuclein” (ACS Chemical Neuroscience, 2025).
“And” between values parts separate entries of the source, which are not always exact repeats. Equal entries are not always repeated.

What was measured:
dynamic light scattering = target: the molecule itself; assay: dynamic light scattering
[1] = target: α-synuclein (αSyn), wild type (human, UniProt P37840 1-140); assay: ITC; settings: both partners purified

B1: Spike 194–203 (S194), fibrillogenic fragment of the Spike protein of SARS-CoV-2 (peptide)
peptide: FKNIDGYFKI
notes: also called mS194 (monomer); fS194 (fibrils)
In the case of B1, the binding result (dynamic light scattering) is reported as “binds” and the dH [1] is reported as -200 kcal/mol and -150 kcal/mol.
